Consider one substance from patent publication US20160215061A1.

This experiment addresses recombinant mouse FcγRIIB expressed in NS0 cells (mouse) (UniProt P08101). Put plainly: SPR (Biacore); capture sample on chip, rmFcgRIIB (NSO) injected; reference Herceptin. (In SPR one partner is held on a chip, and binding of the other changes the refractive index at the surface.)

Chain of recombinant mouse FcγRIIB expressed in NS0 cells (mouse) (P08101 40-207 limits assumed): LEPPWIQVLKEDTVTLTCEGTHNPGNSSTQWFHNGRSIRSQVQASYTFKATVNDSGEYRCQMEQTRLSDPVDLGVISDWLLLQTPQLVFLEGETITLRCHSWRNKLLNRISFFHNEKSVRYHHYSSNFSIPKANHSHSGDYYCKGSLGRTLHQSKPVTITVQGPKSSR

As for “F243A/V264A Fc (SEQ ID NO: 7) (from UniProt P0DOX5 218-448)”, the Fold Increase in RU vs WT IgG1 came out at 0.5 fold.
